Patent publication US20250250357A1 (NANJING ZAIMING PHARMACEUTICAL, published 2025)

Legend:
[1] = target: T1, human MSLN-FL-his protein (human, UniProt Q13421 296-580); experiment: ELISA
T1 construct: also called hMSLN-FL-his; human MSLN full-length protein

[2] = target: T2, human MSLN-R2-his protein (human, UniProt Q13421 391-486); experiment: ELISA; antibody 1 nM
T2 construct: also called hMSLN-R2-his; not shown: His tag

[3] = target: T3, human MSLN-R3-his protein (human, UniProt Q13421 487-598); experiment: ELISA; antibody 1 nM
T3 construct: also called hMSLN-R3-his; not shown: His tag

[4] = target: T4, human MSLN-R3-3 polypeptide (human); experiment: ELISA; antibody 1 nM
T4 construct: also called hMSLN-R3-3

[5] = target: T2, human MSLN-R2-his protein; experiment: ELISA; antibody 1 nM; remark: listed apart in the source
[6] = target: T3, human MSLN-R3-his protein; experiment: ELISA; antibody 1 nM; remark: listed apart in the source
[7] = target: T2, human MSLN-R2-his protein; experiment: ELISA; antibody 10 nM
[8] = target: T3, human MSLN-R3-his protein; experiment: ELISA; antibody 10 nM
[9] = target: T2, human MSLN-R2-his protein; experiment: ELISA; antibody 0.1 nM
[10] = target: T2, human MSLN-R2-his protein; experiment: ELISA; antibody 100 nM
[11] = target: T3, human MSLN-R3-his protein; experiment: ELISA; antibody 0.1 nM
[12] = target: T3, human MSLN-R3-his protein; experiment: ELISA; antibody 100 nM
[13] = target: T2, human MSLN-R2-his protein; experiment: ELISA; antibody 0.01 nM
[14] = target: T3, human MSLN-R3-his protein; experiment: ELISA; antibody 0.01 nM
[15] = target: T2, human MSLN-R2-his protein; experiment: ELISA; antibody 0.001 nM
[16] = target: T3, human MSLN-R3-his protein; experiment: ELISA; antibody 0.001 nM
[17] = target: T2, human MSLN-R2-his protein; experiment: ELISA; antibody 0.0001 nM
[18] = target: T3, human MSLN-R3-his protein; experiment: ELISA; antibody 0.0001 nM
[19] = target: T2, human MSLN-R2-his protein; experiment: ELISA; antibody 0 nM (blank)
[20] = target: T3, human MSLN-R3-his protein; experiment: ELISA; antibody 0 nM (blank)
[21] = target: T5, human MSLN-R1-his protein (human, UniProt Q13421 296-390); experiment: ELISA, antibody 1 nM
T5 construct: also called hMSLN-R1-his; human MSLN-R1 protein
T5 chain: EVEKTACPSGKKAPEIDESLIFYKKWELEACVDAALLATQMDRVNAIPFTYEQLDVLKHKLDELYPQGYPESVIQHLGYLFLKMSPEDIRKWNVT

[22] = target: T5, human MSLN-R1-his protein; experiment: ELISA, antibody 10 nM
[23] = target: T5, human MSLN-R1-his protein; experiment: ELISA, antibody 0.1 nM
[24] = target: T5, human MSLN-R1-his protein; experiment: ELISA, antibody 100 nM
[25] = target: T5, human MSLN-R1-his protein; experiment: ELISA, antibody 0.01 nM
[26] = target: T5, human MSLN-R1-his protein; experiment: ELISA, antibody 0.001 nM
[27] = target: T5, human MSLN-R1-his protein; experiment: ELISA, antibody 0.0001 nM
[28] = target: T5, human MSLN-R1-his protein; experiment: ELISA, antibody 0 nM (blank)
[29] = target: T6, human MSLN on OVCAR3 tumor cells (human, UniProt Q13421 296-598); experiment: FACS, OVCAR3 cells
T6 construct: whole, on cells; also called human MSLN protein

[30] = target: T7, human MSLN-R3 on HEK293T-hMSLN-R3 recombinant cells (human, UniProt Q13421 487-606); experiment: FACS, HEK293T-hMSLN-R3 cells
T7 construct: the C-terminal limit is uncertain; also called human MSLN-R3 membrane protein

[31] = target: T8, monkey MSLN on HEK293T-monkey MSLN recombinant cells (monkey); experiment: FACS, HEK293T-monkey MSLN cells
T8 construct: Full-length precursor as transfected; processing on the cell is not described; also called HEK293-monkey MSLN
T8 chain: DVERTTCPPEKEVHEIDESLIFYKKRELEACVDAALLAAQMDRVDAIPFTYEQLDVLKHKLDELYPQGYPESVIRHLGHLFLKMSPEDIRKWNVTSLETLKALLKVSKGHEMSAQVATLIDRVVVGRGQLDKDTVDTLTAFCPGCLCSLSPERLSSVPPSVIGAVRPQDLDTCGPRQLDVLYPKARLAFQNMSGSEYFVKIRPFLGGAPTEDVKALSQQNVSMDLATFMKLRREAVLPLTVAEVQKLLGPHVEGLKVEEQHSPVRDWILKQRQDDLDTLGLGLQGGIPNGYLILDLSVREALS

human MSLN-R3 protein [32] = target: T9, human MSLN-R3 protein (human, UniProt Q13421 487-598); experiment: ELISA, MSLN-R3 coated, antibody 1 nM
T9 construct: also called hMSLN-R3

human MSLN-R3 protein [33] = target: T9, human MSLN-R3 protein; experiment: ELISA, MSLN-R3 coated, antibody 10 nM
human MSLN-R3 protein [34] = target: T9, human MSLN-R3 protein; experiment: ELISA, MSLN-R3 coated, antibody 0.1 nM
human MSLN-R3 protein [35] = target: T9, human MSLN-R3 protein; experiment: ELISA, MSLN-R3 coated, antibody 100 nM
human MSLN-R3 protein [36] = target: T9, human MSLN-R3 protein; experiment: ELISA, MSLN-R3 coated, antibody 0.01 nM
human MSLN-R3 protein [37] = target: T9, human MSLN-R3 protein; experiment: ELISA, MSLN-R3 coated, antibody 0.001 nM
human MSLN-R3 protein [38] = target: T9, human MSLN-R3 protein; experiment: ELISA, MSLN-R3 coated, antibody 0.0001 nM
[39] = target: T10, human MSLN-hFc recombinant protein (human, UniProt Q13421 296-580); experiment: SPR (Biacore 8K), MSLN-hFc captured, antibody injected
T10 construct: Captured by an anti-human IgG antibody on the chip; also called human MSLN protein; Acro MSN-H5253
T10 sequence (Q13421 other isoform, or with tags, fused parts or gaps): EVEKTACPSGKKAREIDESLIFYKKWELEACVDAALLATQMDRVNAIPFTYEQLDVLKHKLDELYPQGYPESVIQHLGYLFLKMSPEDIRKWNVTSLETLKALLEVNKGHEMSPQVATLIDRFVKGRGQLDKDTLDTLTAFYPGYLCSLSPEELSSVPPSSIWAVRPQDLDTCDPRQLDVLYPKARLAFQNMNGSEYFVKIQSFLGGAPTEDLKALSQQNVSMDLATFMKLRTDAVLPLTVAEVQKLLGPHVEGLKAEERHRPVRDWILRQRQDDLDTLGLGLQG

T2 sequence (Q13421 other isoform, or with tags, fused parts or gaps): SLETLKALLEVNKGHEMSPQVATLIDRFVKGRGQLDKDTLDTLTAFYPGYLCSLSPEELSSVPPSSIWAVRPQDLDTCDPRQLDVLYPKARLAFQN
T9 sequence (Q13421 495-606): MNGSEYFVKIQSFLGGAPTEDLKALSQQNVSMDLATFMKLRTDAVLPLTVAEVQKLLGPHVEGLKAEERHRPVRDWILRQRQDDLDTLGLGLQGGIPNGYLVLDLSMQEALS
T3 sequence (Q13421 495-606): as above
T7 sequence (Q13421 495-614): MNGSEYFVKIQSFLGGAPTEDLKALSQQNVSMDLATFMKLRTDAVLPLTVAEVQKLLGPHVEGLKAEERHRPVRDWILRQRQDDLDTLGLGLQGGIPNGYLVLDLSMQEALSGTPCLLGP
T6 sequence (Q13421 other isoform, or with tags, fused parts or gaps): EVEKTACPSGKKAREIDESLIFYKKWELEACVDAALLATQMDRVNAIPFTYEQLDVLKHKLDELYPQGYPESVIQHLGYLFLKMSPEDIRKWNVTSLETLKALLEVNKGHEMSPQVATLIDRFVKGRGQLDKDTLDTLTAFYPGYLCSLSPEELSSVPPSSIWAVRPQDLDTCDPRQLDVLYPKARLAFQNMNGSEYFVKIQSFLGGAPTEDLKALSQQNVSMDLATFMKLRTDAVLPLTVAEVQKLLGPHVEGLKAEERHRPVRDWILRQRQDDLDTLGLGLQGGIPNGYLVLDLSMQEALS

B1: S009-F3.38.10 (antibody, human IgG1, kappa, V domains shown)
VH: EVQLQQSGPVLVKPGASVKMSCEASGYIFTDYYMNWVKKSHGKSLEWIGVINPKNGVISHNQKFKGKATLTVDKSSNTAYMELSSLTSEDSAVYYCANYGSRFYAMDYWGQGTSVTVSS
VL: DVVMTQTPLSLPVSLGDQASISCRSSQSLIHSDGNTYLQWYLQKSGQSPKLLIYKVSNRFSGVPDRFSGSGSGTDFTLKISRVETEDLGVYFCSQTTHVPFTFGSGTKLEIKR
notes: chimeric, human IgG1/kappa
[1]
  binding result: no binding (tested: up to 100 nM)

B2: Tab020 (YP223, rabbitIgG1) (antibody, V domains shown)
VH: QEQLEESGGDLVQPEGSLTLTCKASGLDFSSSYWICWVRQAPGKGLEWIGCRHTFTANTWSASWVNGRFTISRSTSLGTVDLKMTSLTAADTATYFCARDESNNDGWDFKLWGPGTLVTVSS
VL: AYDMTQTPASVSAAVGGTVTIKCQASQSISNYLAWYQQKPGQPPKLLIYQASTLAPGVSSRFKGSGSGTEFTLTISGVECADAATYYCQQGYTSSNVENVFGGGTGVVVGD
notes: Control antibody; VH and VL recombined into rabbit IgG1 CH and CL expression vectors; also called YP223 rabbit IgG1 antibody; rabbit anti-human MSLN antibody
[2]
  OD450 nm: 1.49
[3]
  OD450 nm: 0.05
[4]
  OD450 nm: 0.09
[5]
  OD450 nm: 1.49
[6]
  OD450 nm: 0.05
[7]
  OD450 nm: 2.01
[8]
  OD450 nm: 0.05
[9]
  OD450 nm: 0.2
[10]
  OD450 nm: 2.5
[11]
  OD450 nm: 0.05
[12]
  OD450 nm: 0.05
[13]
  OD450 nm: 0.07
[14]
  OD450 nm: 0.05
[15]
  OD450 nm: 0.05
[16]
  OD450 nm: 0.05
[17]
  OD450 nm: 0.05
[18]
  OD450 nm: 0.05
[19]
  OD450 nm: 0.05
[20]
  OD450 nm: 0.05

B3: Tab107 (YP3, hIgG1) (antibody, V domains shown)
VH: QEQLVESGGGLVQPGASLTLTCTASGIDFSRYYMCWVRQAPGKGLEGIACIYIGGSGSTYYASWAKGRFTISKASSTTVTLQMTSLTAADTATYFCARGTNLNYIFRLWGPGTLVTVSS
VL: DVVMTQTPSPVSAAVGGTVTIKCQASQSINNGLAWYQQKPGQPPRLLIYSASNLESGVPSRFKGSGSGTEFTLTISDLECDDAATYYCQCIWDGNSYVNAFGGGTEVVVRT
notes: also called YP3 human IgG1 antibody
[21]
  OD450 nm: 0.05
[22]
  OD450 nm: 0.06
[23]
  OD450 nm: 0.05
[24]
  OD450 nm: 0.08
[25]
  OD450 nm: 0.06
[26]
  OD450 nm: 0.05
[27]
  OD450 nm: 0.04
[28]
  OD450 nm: 0.05

B4: F3.38.10-L1H5 (scFv, not shown: small tags and cut ends)
scFv: DIVMTQTPLSLPVTPGEPASISCRSSQSLIHSDGNTYLQWYLQKPGQSPQLLIYKVSNRFSGVPDRFSGSGSGTDFTLKISRVEAEDVGVYYCSQTTHVPFTFGQGTKLEIKGGGGSGGGGSGGGGSEVQLVQSGAEVKKPGASVKVSCKASGYIFTDYYMNWVRQAHGQRLEWMGVINPKNGVISHNQKFKGRVTITVDKSANTAYMELSSLRSEDTAVYYCANYGSRFYAMDYWGQGTTVTVSS
notes: also called S009-F3.38.10 humanized antibody VL1 + VH5
[29]
  EC50: 99.8 nM
[30]
  EC50: 12 nM
  Maximum_MFI: 1280 MFI
[31]
  EC50: 90.1 nM
Human MSLN-R3 protein [32]
  OD450 nm: 0.27 OD
Human MSLN-R3 protein [33]
  OD450 nm: 1.19 OD
Human MSLN-R3 protein [34]
  OD450 nm: 0.08 OD
Human MSLN-R3 protein [35]
  OD450 nm: 2.36 OD
Human MSLN-R3 protein [36]
  OD450 nm: 0.07 OD
Human MSLN-R3 protein [37]
  OD450 nm: 0.07 OD
Human MSLN-R3 protein [38]
  OD450 nm: 0.07 OD
[39]
  binding result: no binding
